From article PMC3970081 (Developmental cell, 2014) come the findings set out here.

Test [1] deals with T1, His-MB (AnkG MB domain, aa 2–791, His-tagged) (UniProt O70511 2-791).
T1 sequence (looked up): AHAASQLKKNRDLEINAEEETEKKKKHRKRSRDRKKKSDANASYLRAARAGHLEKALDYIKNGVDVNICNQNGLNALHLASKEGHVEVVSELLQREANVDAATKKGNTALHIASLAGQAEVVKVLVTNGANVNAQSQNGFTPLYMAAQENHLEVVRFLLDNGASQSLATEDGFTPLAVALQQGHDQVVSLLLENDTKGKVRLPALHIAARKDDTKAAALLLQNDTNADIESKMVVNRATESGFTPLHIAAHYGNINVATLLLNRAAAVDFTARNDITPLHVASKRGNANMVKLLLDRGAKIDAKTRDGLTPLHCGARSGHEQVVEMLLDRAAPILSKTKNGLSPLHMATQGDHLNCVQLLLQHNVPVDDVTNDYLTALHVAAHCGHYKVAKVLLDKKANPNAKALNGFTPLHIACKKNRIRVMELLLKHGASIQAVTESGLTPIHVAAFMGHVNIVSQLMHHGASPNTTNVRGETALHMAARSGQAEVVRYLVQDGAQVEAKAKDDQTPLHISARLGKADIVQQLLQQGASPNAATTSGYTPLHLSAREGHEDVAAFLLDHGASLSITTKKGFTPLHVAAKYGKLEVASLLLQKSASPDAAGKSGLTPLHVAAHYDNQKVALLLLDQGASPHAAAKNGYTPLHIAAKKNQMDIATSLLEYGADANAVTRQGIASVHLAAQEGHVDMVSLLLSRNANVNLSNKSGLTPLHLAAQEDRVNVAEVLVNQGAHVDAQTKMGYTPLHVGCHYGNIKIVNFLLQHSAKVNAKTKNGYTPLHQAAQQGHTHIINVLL
Put plainly: SPR.

The target of test [2] is T2, His-AR1 (AnkG aa 2–236, His-tagged) (UniProt O70511 2-236).
T2 sequence (looked up): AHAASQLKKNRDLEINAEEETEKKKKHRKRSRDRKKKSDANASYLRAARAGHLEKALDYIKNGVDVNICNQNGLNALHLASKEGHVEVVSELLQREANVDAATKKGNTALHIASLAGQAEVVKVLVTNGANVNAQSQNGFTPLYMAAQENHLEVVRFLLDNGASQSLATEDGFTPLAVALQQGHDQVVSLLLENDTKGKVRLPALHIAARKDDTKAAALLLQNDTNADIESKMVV
As to the kind of experiment: SPR. Background: In SPR one partner is held on a chip, and binding of the other changes the refractive index at the surface.

B1: GST-Tail (GST-tagged KIF5B tail, aa 758–963) (domain or fragment)
chain: not shown
As a reminder, the Kd is the free concentration of one partner at which half of the binding sites on the other are occupied at equilibrium, for simple one-to-one binding. A low value points to higher affinity. By koff is commonly meant the first-order rate constant of dissociation. Usually kon stands for the rate constant with which the complex forms. A higher kon goes with faster complex formation. In test [1], B1 yielded a Kd of 2.4 nM, a koff of 0.00059 s⁻¹ and a kon of 290000 M⁻¹ s⁻¹. In addition, in test [2], the affinity, expressed as Kd, was 48 nM; the off-rate constant (koff) was found to be 0.0014 s⁻¹; the kon amounted to 32000 M⁻¹ s⁻¹.
